Measurements published in patent EP2468863A1.

Molecular target: CEACAM1 expressed on transfected cells (CHO-CEACAM1, HeLa CC1, HeLa-CC1H) (human) (UniProt P13688)
Assay: cell-based or functional assay

Chain of UniProt P13688 (P13688 35-526): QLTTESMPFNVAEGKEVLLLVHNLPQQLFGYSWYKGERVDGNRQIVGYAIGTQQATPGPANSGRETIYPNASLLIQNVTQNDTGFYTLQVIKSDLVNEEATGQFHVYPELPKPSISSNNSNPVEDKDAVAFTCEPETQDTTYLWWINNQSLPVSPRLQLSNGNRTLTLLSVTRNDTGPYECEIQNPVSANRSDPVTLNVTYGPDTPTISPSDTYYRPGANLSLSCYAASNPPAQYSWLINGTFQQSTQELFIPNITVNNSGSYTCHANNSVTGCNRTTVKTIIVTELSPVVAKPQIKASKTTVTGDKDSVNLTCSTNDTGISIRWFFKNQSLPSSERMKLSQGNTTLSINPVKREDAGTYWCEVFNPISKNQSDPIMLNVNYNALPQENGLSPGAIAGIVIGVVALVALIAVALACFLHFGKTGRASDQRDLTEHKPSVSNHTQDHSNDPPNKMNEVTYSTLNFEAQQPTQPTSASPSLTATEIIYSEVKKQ

Substance: recombinant UspA1 fragment 4-7 (peptide)
- inhibition of binding of H. influenzae to CHO-CEACAM1 transfectants: 10 µg per ml
- inhibition of binding of M. catarrhalis strain MX1 to CHO-CEACAM1 transfectants: 1 µg/mL
